# Measured values taken from patent publication US20190338018A1.
# B1: mAb mIhfB4NTHI Fab (murine, clone 12E6.F8.D12.D5) (Fab, V domains shown)
# VH: EVQLQESGAELVRSGASVKLSCTASGFNIKDYYMHWVKQRPEQGLEWIGWIDPENDDTEYVPKFQGKASMTADTSSNTAYLQLSSLTSEDTAVYYCTELGAYWGQGTLV
# VL: not shown
# B2: mAb mIhfB4NTHI (murine monoclonal IgG, clone 12E6.F8.D12.D5) (antibody, V domains shown)
# VH: B1 VH
# VL: not shown
# Biological target: DNABII protein tips
# Test: cell-based or functional assay
Binder,"Reduction in Biomass (in vitro vs NTHI biofilms, 171 nM, COMSTAT2, relative to nonspecific murine IgG1) [%]","reduction in biomass of NTHI 86-028NP biofilm in vitro, relative to mAb IgG1 Fab control [%]"
B1,77,74
B2,71,–
